One series has as its system arterial thrombus. In words: Biodistribution in rat model of carotid artery thrombosis. The format is in vivo. The conditions noted are these: 120 min post injection, ratio of %ID/g.
Test in series [1]: as above
It counts as in vivo. The note with it: male, Wistar, in vivo, iv, total radioactivity, Biodistribution.

From publication PMC3593967 (Molecular pharmaceutics, 2013) come the findings set out here.

Bridge positions count the residues as written; N and C are the ends. Square brackets hold non-standard residues; d marks the D form. Peptide text beside a SMILES is read from it. * marks the point of attachment. DOTA(p-xylylenediamine) = O=C(O)CN1CCN(CC(=O)O)CCN(CC(=O)NCc2ccc(CN*)cc2)CCN(CC(=O)O)CC1; DOTA = O=C(O)CN1CCN(CC(=O)O)CCN(CC(=O)*)CCN(CC(=O)O)CC1; Tyr(3-Cl) = N[C@@H](Cc1ccc(O)c(Cl)c1)C(=O)O; Hyp = O=C(O)[C@@H]1C[C@@H](O)CN1

With `CC[C@H](C)[C@H](NC(=O)[C@H](Cc1ccc(O)cc1)NC(=O)[C@@H]1CSSC[C@H](NC(=O)[C@@H](CCC(=O)O)NC(=O)[C@H](Cc2ccc(O)cc2)NC(=O)CN2CCN(CC(=O)O)CCN(CC(=O)O)CCN(CC(=O)O)CC2)C(=O)N2C[C@H](O)C[C@H]2C(=O)N[C@@H](Cc2ccc(O)c(Cl)c2)C(=O)NCC(=O)N[C@@H](CC(C)C)C(=O)N1)C(=O)N[C@@H](CCC(N)=O)C(=O)NCc1ccc(CNC(=O)CN2CCN(CC(=O)O)CCN(CC(=O)O)CCN(CC(=O)O)CC2)cc1` [FBP1] ({DOTA}-Y[dE]C[Hyp][Tyr(3-Cl)]GLCYIQ-{DOTA(p-xylylenediamine)}; disulfide 3-8), the “thrombus uptake relative to blood” value in the series with arterial thrombus was > 2.5 fold.

With `CC[C@H](C)[C@H](NC(=O)[C@H](Cc1c[nH]cn1)NC(=O)[C@@H]1CSSC[C@H](NC(=O)[C@H](Cc2c[nH]cn2)NC(=O)[C@H](Cc2ccccc2)NC(=O)CN2CCN(CC(=O)O)CCN(CC(=O)O)CCN(CC(=O)O)CC2)C(=O)N2C[C@H](O)C[C@H]2C(=O)N[C@@H](Cc2ccc(O)c(Cl)c2)C(=O)N[C@@H](CC(=O)O)C(=O)N[C@@H](CC(C)C)C(=O)N1)C(=O)N[C@@H](CC(C)C)C(=O)NCc1ccc(CNC(=O)CN2CCN(CC(=O)O)CCN(CC(=O)O)CCN(CC(=O)O)CC2)cc1` [FBP2] ({DOTA}-FHC[Hyp][Tyr(3-Cl)]DLCHIL-{DOTA(p-xylylenediamine)}; disulfide 3-8), the tissue uptake (usually the percentage of the injected dose found per gram of tissue) at 2 h was 0.164 ± 0.016 %ID/g in series [1] (blood); 0.043 ± 0.015 %ID/g in series [1] (bone); 0.017 ± 0.004 %ID/g in series [1] (brain); 0.445 ± 0.102 %ID/g in series [1] (clot); 0.074 ± 0.011 %ID/g in series [1] (heart); 0.278 ± 0.095 %ID/g in series [1] (intestine). For the same molecule, the tissue uptake at 2 h was 2.72 ± 0.848 %ID/g in series [1] (kidney); 0.617 ± 0.187 %ID/g in series [1] (liver); 0.048 ± 0.01 %ID/g in series [1] (lungs); 0.012 ± 0.003 %ID/g in series [1] (muscle); 0.071 ± 0.016 %ID/g in series [1] (spleen). Also, the “thrombus uptake relative to blood” value with arterial thrombus is recorded as > 2.5 fold.

Take `CC[C@H](C)[C@H](NC(=O)[C@H](Cc1c[nH]c2ccccc12)NC(=O)[C@@H]1CSSC[C@H](NC(=O)[C@H](CCC(=O)O)NC(=O)[C@H](Cc2c[nH]c3ccccc23)NC(=O)CN2CCN(CC(=O)O)CCN(CC(=O)O)CCN(CC(=O)O)CC2)C(=O)N2C[C@H](O)C[C@H]2C(=O)N[C@@H](Cc2ccc(O)c(Cl)c2)C(=O)NCC(=O)N[C@@H](CC(C)C)C(=O)N1)C(=O)N[C@@H](CCC(N)=O)C(=O)NCc1ccc(CNC(=O)CN2CCN(CC(=O)O)CCN(CC(=O)O)CCN(CC(=O)O)CC2)cc1` [FBP3] ({DOTA}-WEC[Hyp][Tyr(3-Cl)]GLCWIQ-{DOTA(p-xylylenediamine)}; disulfide 3-8): the tissue uptake at 2 h in series [1] (blood) is 0.184 ± 0.026 %ID/g; in series [1] (bone), 0.041 ± 0.011 %ID/g; in series [1] (brain) it was 0.011 ± 0.003 %ID/g; in series [1] (clot), 0.183 ± 0.088 %ID/g; in series [1] (heart), 0.082 ± 0.01 %ID/g; in series [1] (intestine), 0.184 ± 0.053 %ID/g. Also, the tissue uptake at 2 h in series [1] (kidney) was determined as 0.621 ± 0.186 %ID/g; in series [1] (liver) it was 1.46 ± 0.292 %ID/g; in series [1] (lungs), 0.066 ± 0.008 %ID/g; in series [1] (muscle), 0.009 ± 0.001 %ID/g; in series [1] (spleen), 0.04 ± 0.006 %ID/g. Further, the “thrombus uptake relative to blood” value in the series on arterial thrombus is given as “no difference”.
